Test results published in the supplement of paper PMC10126150.
± gives the standard deviation of the averaged measurements.

These sequences were tested on ATP (assay: switch fluorescence ratio, 500 uM ATP over buffer (Cy3 cluster intensity, sum of 5 cycles each) (fold (ratio)); higher = stronger signal-on switching upon ATP binding; sequences stand for … in TCGTCGGCAGCGTCAGATGTGTATAAGAGACAGTTTTTTTTTTTTTTTTTTTTTTTTT…TC). Details: aptamer strand: ATP DNA aptamer (quencher-CACCTGGGGGAGTATTGCGGAGGAAGG + anchor), 100 nM annealed; ATP concentration: 500 uM.
How it was run: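 Five buffer/ATP imaging cycles were run on Cy3-labelled switching-strand clusters on a modified Illumina MiSeq flow-cell, with NaOH stripping and re-annealing between cycles. In each cycle, clusters annealed to 100 nM quencher-labelled ATP aptamer were imaged in selection buffer, then after 15 min with 500 uM ATP at 22 °C. Per cluster, the fluorescence ratio is summed target-cycle over summed buffer-cycle Cy3 intensity, averaged per switch-domain sequence. Only clusters within 100-1000 RFU were kept.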
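Note: ATP exposure 15 min at 22 °C before imaging.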

Sequence | switch fluorescence ratio
GACTTATTTA | 1.01 ± 0.043
GACTTGCTGA | 1 ± 0.049
GACTTGGTGC | 1.06 ± 0.023
GACTTTGGGG | 1 ± 0.013
GACTTTGTTC | 0.983 ± 0.012
GACTTTTATT | 0.989 ± 0.017
GACTTTTGTA | 0.9812 ± 0.0045
GACTTTTTGC | 0.933 ± 0.055
GACTTTTTTC | 0.9748 ± 0.0053
GAGAAAATCG | 1 ± 0.043
GAGAAAATGG | 1.003 ± 0.0039
GAGAAATGGG | 1.07 ± 0.038
GAGAAATTCC | 1.07 ± 0.021
GAGAACAGTG | 1.02 ± 0.041
GAGAACGAGG | 0.983 ± 0.023
GAGAAGAGGC | 1.13 ± 0.023
GAGAAGCGGT | 1.004 ± 0.008
GAGAAGCTAT | 0.987 ± 0.015
GAGAAGGGCA | 1.02 ± 0.05
GAGAAGTTAG | 1.02 ± 0.023
GAGAAGTTGA | 1 ± 0.02
GAGAATTAGG | 0.964 ± 0.039
GAGACATTAC | 1.61 ± 0.04
GAGACCAATC | 1.023 ± 0.008
GAGACCCTAT | 1.029 ± 0.0074

Sequence | switch fluorescence ratio
GAGACGACCA | 1.15 ± 0.029
GAGACGCTTA | 1.069 ± 0.0064
GAGACGTTTT | 0.97 ± 0.015
GAGAGAGGGA | 1.01 ± 0.034
GAGAGATCG | 0.982 ± 0.021
GAGAGATTAT | 0.9787 ± 0.002
GAGAGCCGTC | 1.08 ± 0.13
GAGAGCGAGT | 1.03 ± 0.036
GAGAGCTATA | 1.07 ± 0.044
GAGAGCTCAC | 1.01 ± 0.021
GAGAGGACAT | 0.996 ± 0.011
GAGAGGGAAG | 1.004 ± 0.0077
GAGAGGGCAG | 0.9869 ± 0.0072
GAGAGGGCCT | 0.985 ± 0.038
GAGAGGTTCG | 0.962 ± 0.012
GAGAGGTTTG | 0.9818 ± 0.008
GAGAGTAGAG | 0.992 ± 0.034
GAGAGTATAT | 1.01 ± 0.012
GAGAGTGACT | 0.969 ± 0.0083
GAGAGTGGGC | 1 ± 0.043
GAGAGTGGTT | 0.998 ± 0.012
GAGAGTTAAG | 0.9677 ± 0.0074
GAGATAGAGG | 1.006 ± 0.0087
GAGATAGGGG | 0.994 ± 0.016
GAGATAGGGT | 1.03 ± 0.013

Sequence | switch fluorescence ratio
GAGATCCATG | 1.01 ± 0.038
GAGATCGGGG | 1 ± 0.03
GAGATCGTAT | 0.991 ± 0.017
GAGATCGTGC | 0.96 ± 0.018
GAGATGGAAG | 0.993 ± 0.018
GAGATGGGCA | 1.01 ± 0.06
GAGATGGTTT | 0.997 ± 0.024
GAGATGTTTA | 0.987 ± 0.029
GAGATTAATT | 0.967 ± 0.016
GAGATTCGCC | 1.02 ± 0.054
GAGATTGCAG | 0.974 ± 0.069
GAGATTGCGC | 1.02 ± 0.046
GAGATTGGAG | 0.9892 ± 0.0044
GAGCAGGGGG | 1.01 ± 0.042
GAGCATAGTT | 1.03 ± 0.014
GAGCATGGGA | 1.02 ± 0.012
GAGCCATTTT | 0.991 ± 0.041
GAGCCGGGTA | 0.9982 ± 0.0063
GAGCCTTACT | 1.38 ± 0.26
GAGCGAAAGG | 0.991 ± 0.025
GAGCGAGCTC | 0.988 ± 0.021
GAGCGGCTTC | 1.027 ± 0.0097
GAGCGGGGGG | 0.969 ± 0.022
GAGCGGGGTG | 1 ± 0.021
GAGCGTAGGG | 0.9537 ± 0.0089

Sequence | switch fluorescence ratio
GAGCGTCACG | 1.006 ± 0.0055
GAGCTAAGTT | 0.992 ± 0.012
GAGCTCTTAT | 1 ± 0.038
GAGCTGCGGG | 1.002 ± 0.0021
GAGCTGGGCG | 0.969 ± 0.13
GAGCTGGGTC | 1.02 ± 0.071
GAGCTGTGGG | 0.971 ± 0.039
GAGCTTGTGG | 1.03 ± 0.015
GAGGAAAAGT | 0.997 ± 0.051
GAGGAAAGCA | 0.9815 ± 0.0056
GAGGAAATCA | 0.9877 ± 0.008
GAGGAGCTGG | 0.986 ± 0.051
GAGGAGCTGT | 0.999 ± 0.026
GAGGAGGAAT | 1.01 ± 0.017
GAGGAGGGGT | 0.989 ± 0.039
GAGGATAGGG | 0.9768 ± 0.0037
GAGGATAGGT | 0.98 ± 0.011
GAGGATGGCA | 0.9807 ± 0.0061
GAGGATTCAT | 1.04 ± 0.085
GAGGATTTCA | 0.99698 ± 0.00049
GAGGCATTGT | 1.05 ± 0.017
GAGGCGACTG | 1.03 ± 0.031
GAGGCTACTG | 0.9901 ± 0.0082
GAGGCTAGTT | 0.9936 ± 0.0047
GAGGCTGGGT | 0.988 ± 0.0081

Sequence | switch fluorescence ratio
GAGGGAAATG | 0.997 ± 0.098
GAGGGAACAG | 1.01 ± 0.013
GAGGGACAAT | 0.9882 ± 0.0066
GAGGGACCGT | 0.995 ± 0.025
GAGGGACGAG | 1.05 ± 0.015
GAGGGACTGT | 0.972 ± 0.026
GAGGGATAGC | 0.991 ± 0.025
GAGGGCAGAC | 1.24 ± 0.075
GAGGGCCTTT | 0.968 ± 0.048
GAGGGCGTCA | 0.995 ± 0.027
GAGGGGAACT | 0.995 ± 0.021
GAGGGGAAGA | 0.998 ± 0.031
GAGGGGAGGA | 1.04 ± 0.014
GAGGGGAGTA | 1 ± 0.033
GAGGGGATAT | 1.38 ± 0.59
GAGGGGATCG | 0.967 ± 0.015
GAGGGGATGA | 1.01 ± 0.031
GAGGGGCCTC | 1.03 ± 0.037
GAGGGGGAAA | 1.02 ± 0.031
GAGGGGGAAG | 1 ± 0.049
GAGGGGGGTG | 1 ± 0.028
GAGGGGGTCC | 1.03 ± 0.069
GAGGGGTATC | 0.96 ± 0.045
GAGGGGTTAC | 1.01 ± 0.05
GAGGGGTTGC | 1.09 ± 0.047

Sequence | switch fluorescence ratio
GAGGGGTTTA | 1 ± 0.027
GAGGGTAAGA | 1.02 ± 0.062
GAGGGTCTCT | 0.98005 ± 0.00068
GAGGGTTCGA | 0.987 ± 0.033
GAGGGTTTTA | 1 ± 0.016
GAGGTACGCG | 1.026 ± 0.0062
GAGGTAGGTC | 0.9945 ± 0.0019
GAGGTATTGG | 1.01 ± 0.022
GAGGTCAGTG | 0.974 ± 0.019
GAGGTGCTGA | 1 ± 0.061
GAGGTGTGAC | 1.01 ± 0.039
GAGGTTCAGT | 0.989 ± 0.011
GAGGTTCGCT | 0.979 ± 0.069
GAGGTTGCGG | 0.96 ± 0.036
GAGGTTGGGA | 1.01 ± 0.012
GAGGTTTATA | 0.984 ± 0.043
GAGGTTTGGG | 0.982 ± 0.035
GAGGTTTTTT | 0.987 ± 0.021
GAGTAACCAG | 0.979 ± 0.036
GAGTAAGATT | 1.02 ± 0.025
GAGTAATGGG | 1.003 ± 0.0098
GAGTACCGAA | 0.969 ± 0.031
GAGTACTAGA | 1.02 ± 0.018
GAGTAGGGGG | 0.993 ± 0.033
GAGTATAATA | 0.997 ± 0.025

Sequence | switch fluorescence ratio
GAGTATACGT | 1.022 ± 0.0048
GAGTCAGGGT | 1.02 ± 0.011
GAGTCCGTAC | 1.31 ± 0.017
GAGTCGAGAG | 0.99 ± 0.033
GAGTCTGTCC | 1.019 ± 0.0035
GAGTGACTCG | 1.01 ± 0.014
GAGTGAGGTT | 0.955 ± 0.046
GAGTGATGTT | 0.979 ± 0.012
GAGTGCATTG | 1.01 ± 0.015
GAGTGCCGGT | 1.02 ± 0.023
GAGTGCGTCG | 1.01 ± 0.16
GAGTGCTAAA | 1.01 ± 0.0053
GAGTGCTTGG | 0.973 ± 0.022
GAGTGGGCGG | 0.996 ± 0.071
GAGTGGTTAG | 0.9884 ± 0.0017
GAGTGTGAAA | 0.978 ± 0.035
GAGTGTGGGC | 1.01 ± 0.099
GAGTGTTAGG | 0.996 ± 0.013
GAGTGTTGGT | 1 ± 0.022
GAGTTAAAGT | 1.01 ± 0.014
GAGTTCACGT | 1.04 ± 0.013
GAGTTCAGGT | 1.01 ± 0.019
GAGTTCTTG | 0.986 ± 0.023
GAGTTGAATT | 0.993 ± 0.046
GAGTTGCTTA | 1.006 ± 0.01

Sequence | switch fluorescence ratio
GAGTTGGGGA | 1 ± 0.036
GAGTTGTCGA | 0.994 ± 0.022
GAGTTGTTGG | 0.968 ± 0.024
GAGTTTAGAT | 0.994 ± 0.018
GAGTTTAGCG | 0.982 ± 0.025
GAGTTTCGTG | 0.965 ± 0.01
GATAAAAGTT | 1.02 ± 0.066
GATAAAGATA | 1.02 ± 0.043
GATAAAGGGT | 1.005 ± 0.0052
GATAAAGTTA | 0.992 ± 0.013
GATAAATGAT | 1 ± 0.02
GATAACATAC | 1.368 ± 0.0047
GATAACGAAG | 1.008 ± 0.006
GATAAGGAAC | 0.9788 ± 0.0072
GATAAGTTGG | 0.935 ± 0.09
GATAATAAGT | 1.01 ± 0.016
GATAATAATT | 0.9969 ± 0.0091
GATAATAGTG | 1.08 ± 0.073
GATAATATGG | 0.9814 ± 0.0094
GATAATATTT | 0.986 ± 0.011
GATAATCGAG | 1.02 ± 0.018
GATAATGAAC | 1.02 ± 0.02
GATAATTTCT | 0.9886 ± 0.0046
GATACACATG | 1.04 ± 0.021
GATACATGTG | 1.048 ± 0.0086
